The values below come from patent publication US20100068151A1 (published 2010).

The experiment addresses T1, VEGFR-2 expressed on PAE/KDR cells (human, UniProt P35968 20-1356).
T1 construct: whole, on cells
Description: cell-binding assay, displacement of 125I-VEGF165 from PAE/KDR cells.

T1 sequence (P35968 20-1356): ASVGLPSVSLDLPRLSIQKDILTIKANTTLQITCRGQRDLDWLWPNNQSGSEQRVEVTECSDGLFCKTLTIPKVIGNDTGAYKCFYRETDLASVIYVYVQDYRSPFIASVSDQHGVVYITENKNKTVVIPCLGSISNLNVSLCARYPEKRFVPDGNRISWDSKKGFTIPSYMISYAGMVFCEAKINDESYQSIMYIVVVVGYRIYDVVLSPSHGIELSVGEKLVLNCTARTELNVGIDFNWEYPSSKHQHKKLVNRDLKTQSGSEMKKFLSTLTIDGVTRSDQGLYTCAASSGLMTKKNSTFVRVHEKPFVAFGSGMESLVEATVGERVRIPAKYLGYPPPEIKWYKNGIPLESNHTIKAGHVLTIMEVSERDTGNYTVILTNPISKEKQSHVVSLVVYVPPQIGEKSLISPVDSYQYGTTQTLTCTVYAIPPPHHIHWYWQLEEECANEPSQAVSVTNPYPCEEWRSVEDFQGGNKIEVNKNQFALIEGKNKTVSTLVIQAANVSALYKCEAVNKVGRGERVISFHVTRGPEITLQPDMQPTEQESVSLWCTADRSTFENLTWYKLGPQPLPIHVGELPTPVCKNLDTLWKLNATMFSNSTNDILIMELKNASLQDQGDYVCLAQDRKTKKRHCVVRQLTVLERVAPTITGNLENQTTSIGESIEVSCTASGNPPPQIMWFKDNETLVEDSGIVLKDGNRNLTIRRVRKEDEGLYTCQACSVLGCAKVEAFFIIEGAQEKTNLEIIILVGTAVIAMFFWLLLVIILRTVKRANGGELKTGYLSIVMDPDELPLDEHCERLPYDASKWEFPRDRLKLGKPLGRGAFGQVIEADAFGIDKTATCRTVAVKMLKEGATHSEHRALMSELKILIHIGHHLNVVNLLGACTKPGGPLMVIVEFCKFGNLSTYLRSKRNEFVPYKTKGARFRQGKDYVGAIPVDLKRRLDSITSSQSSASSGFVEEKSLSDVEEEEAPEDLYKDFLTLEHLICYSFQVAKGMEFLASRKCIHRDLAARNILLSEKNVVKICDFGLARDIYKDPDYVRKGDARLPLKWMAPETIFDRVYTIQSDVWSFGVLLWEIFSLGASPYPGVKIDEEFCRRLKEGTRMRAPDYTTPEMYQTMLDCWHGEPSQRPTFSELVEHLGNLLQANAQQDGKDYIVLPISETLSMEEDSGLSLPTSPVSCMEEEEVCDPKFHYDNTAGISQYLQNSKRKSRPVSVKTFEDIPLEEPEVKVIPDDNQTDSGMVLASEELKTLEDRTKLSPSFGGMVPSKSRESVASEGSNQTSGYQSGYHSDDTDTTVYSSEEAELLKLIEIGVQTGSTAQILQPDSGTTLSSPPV

B1: VEGF121/rGel fusion toxin (other)
chain: APMAEGGGQNHHEVVKFMDVYQRSYCHPIETLVDIFQEYPDEIEYIFKPSCVPLMRCGGCCNDEGLECVPTEESNITMQIMRIKPHQGQHIGEMSFLQHNKCECRPKKDRARQEKCDKPRRGGGGSGLDTVSFSTKGATYITYVNFLNELRVKLKPEGNSHGIPLLRKKCDDPGKCFVLVALSNDNGQLAEIAIDVTSVYVVGYQVRNRSYFFKDAPDAAYEGLFKNTIKTRLHFGGSYPSLEGEKAYRETTDLGIEPLRIGIKKLDENAIDNYKPTEIASSLLVVIQMVSEAARFTFIENQIRNNFQQRIRPANNTISLENKWGKLSFQIRTSGANGMFSEAVELERANGKKYYVTAVDQVKPKIALLKFVDKDPK
notes: Described as an 84-kDa fusion protein made as in Veenendaal et al., 2002; also called vasculature-targeting fusion protein
For B1, the IC50 was determined as 24.5 nM. That is a double-digit nanomolar value.

B2: DOTA-VEGF121/rGel conjugate (other)
chain: APMAEGGGQNHHEVVKFMDVYQRSYCHPIETLVDIFQEYPDEIEYIFKPSCVPLMRCGGCCNDEGLECVPTEESNITMQIMRIKPHQGQHIGEMSFLQHNKCECRPKKDRARQEKCDKPRRGGGGSGLDTVSFSTKGATYITYVNFLNELRVKLKPEGNSHGIPLLRKKCDDPGKCFVLVALSNDNGQLAEIAIDVTSVYVVGYQVRNRSYFFKDAPDAAYEGLFKNTIKTRLHFGGSYPSLEGEKAYRETTDLGIEPLRIGIKKLDENAIDNYKPTEIASSLLVVIQMVSEAARFTFIENQIRNNFQQRIRPANNTISLENKWGKLSFQIRTSGANGMFSEAVELERANGKKYYVTAVDQVKPKIALLKFVDKDPK
modifications: DOTA chelator conjugated, 3.3±0.1 DOTA molecules per VEGF121/rGel molecule; sites not stated
The molecule B2 yielded a 50% inhibitory concentration (IC50) of 40.6 nM.
